Stoichiometry N, molar ratio of Cdc31p to fusion (gel scan, not and molar ratio of Cdc31p to Sfi1p-prA (inspection of Coomassie-stained bands) data for two molecules are collected here from paper PMC2173958.

Test [1] deals with GST fusion 3a of Sfi1p (451–474) (S. cerevisiae) (UniProt Q12369). Nature of the test: pull-down.
Test [2] deals with GST fusion 4b of Sfi1p (676–710) (S. cerevisiae) (UniProt Q12369). Nature of the test: pull-down.
The target of test [3] is GST fusion 2b of Sfi1p (246–281) (S. cerevisiae) (UniProt Q12369). Put plainly: pull-down.
Test [4] has as its target GST fusion 2c of Sfi1p (279–386) (S. cerevisiae) (UniProt Q12369). Put plainly: pull-down.
Test [5] has as its target GST fusion 4a of Sfi1p (643–677) (S. cerevisiae) (UniProt Q12369). Nature of the test: pull-down.
For test [6], the target named is Sfi1p-prA (S. cerevisiae) (UniProt Q12369). Put plainly: affinity purification with mass spectrometry.

Chain of UniProt Q12369 (Q12369 whole entry, the tested form may be a part): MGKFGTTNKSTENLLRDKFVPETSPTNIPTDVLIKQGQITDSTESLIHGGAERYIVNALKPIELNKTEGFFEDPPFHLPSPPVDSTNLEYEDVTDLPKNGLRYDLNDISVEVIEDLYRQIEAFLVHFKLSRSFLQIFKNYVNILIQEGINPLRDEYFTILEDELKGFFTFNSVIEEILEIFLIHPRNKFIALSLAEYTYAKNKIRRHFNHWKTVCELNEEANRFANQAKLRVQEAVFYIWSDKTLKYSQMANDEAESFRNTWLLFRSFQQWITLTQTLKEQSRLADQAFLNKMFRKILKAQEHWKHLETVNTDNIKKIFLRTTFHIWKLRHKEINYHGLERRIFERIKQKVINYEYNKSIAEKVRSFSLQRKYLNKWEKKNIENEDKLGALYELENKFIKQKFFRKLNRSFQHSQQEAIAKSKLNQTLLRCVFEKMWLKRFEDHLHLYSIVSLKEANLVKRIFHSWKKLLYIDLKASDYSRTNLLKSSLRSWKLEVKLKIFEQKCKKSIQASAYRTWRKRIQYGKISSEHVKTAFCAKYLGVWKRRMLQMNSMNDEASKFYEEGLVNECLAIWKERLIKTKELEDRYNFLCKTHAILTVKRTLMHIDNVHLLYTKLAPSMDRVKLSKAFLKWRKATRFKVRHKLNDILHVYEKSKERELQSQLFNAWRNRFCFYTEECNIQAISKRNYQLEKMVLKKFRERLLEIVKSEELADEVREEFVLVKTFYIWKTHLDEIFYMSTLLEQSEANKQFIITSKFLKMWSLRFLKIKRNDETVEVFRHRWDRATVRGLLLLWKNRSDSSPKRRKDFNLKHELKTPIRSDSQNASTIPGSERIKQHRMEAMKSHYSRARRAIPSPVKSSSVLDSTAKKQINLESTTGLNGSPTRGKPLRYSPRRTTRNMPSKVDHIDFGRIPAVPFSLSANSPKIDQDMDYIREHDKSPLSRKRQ

Regarding “recombinant Cdc31p (from UniProt P06704 2-161) (natural protein)”, the stoichiometry N in test [1], in test [2], in test [3] and in test [5] was < 1.1 throughout. The molar ratio of Cdc31p to fusion (gel scan, not at saturation) in test [4] amounted to 1.1.

B1: Cdc31p (natural protein)
chain: MSKNRSSLQSGPLNSELLEEQKQEIYEAFSLFDMNNDGFLDYHELKVAMKALGFELPKREILDLIDEYDSEGRHLMKYDDFYIVMGEKILKRDPLDEIKRAFQLFDDDHTGKISIKNLRRVAKELGETLTDEELRAMIEEFDLDGDGEINENEFIAICTDS
Turning to B1, the molar ratio of Cdc31p to Sfi1p-prA (inspection of Coomassie-stained bands) in test [6] was > 1.

A word on the stoichiometry N: it is the number of molecules, sites or subunits per partner or assembly.
